The values that follow come from paper PMC2860604.

In data set [1] the target is Wildtype (WT) construct of bZIP domain of human Jun (human). Put plainly: SEC-MALS.
The target of data set [2] is T1, Jun bZIP ΔL543 (human, UniProt P05412 251-293).
T1 chain: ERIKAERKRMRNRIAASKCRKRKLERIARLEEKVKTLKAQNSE
Put plainly: ITC. Background: ITC needs no label: the signal is the heat of the interaction.

The target in data set [3] is Jun bZIP domain WT (human, UniProt P05412 252-315). The data set can be described thus: ITC.
Chain of Jun bZIP domain WT (P05412 252-315): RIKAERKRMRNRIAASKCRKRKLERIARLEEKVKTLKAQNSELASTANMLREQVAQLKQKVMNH
For data set [4], the target named is Jun bZIP ΔL5 (human, UniProt P05412 251-307). The data set can be described thus: ITC.
For data set [5], the target named is T2, Jun bZIP ΔL54 (human, UniProt P05412 251-300).
T2 chain: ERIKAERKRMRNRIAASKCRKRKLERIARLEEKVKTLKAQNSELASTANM
The data set can be described thus: ITC.

In data set [6] the target is T3, Jun bZIP ΔL5432 (human, UniProt P05412 251-286).
T3 chain: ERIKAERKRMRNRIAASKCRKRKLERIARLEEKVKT
The data set can be described thus: ITC.

Data set [7] concerns the target T4, Jun bZIP ΔL54321 (human, UniProt P05412 251-279).
T4 chain: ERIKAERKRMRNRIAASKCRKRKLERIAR
Put plainly: ITC.

As for “Wildtype (WT) construct of bZIP domain of human Jun (domain or fragment)”, the stoichiometry N in data set [1] is 2.

B1: TRE duplex (dsDNA)
DNA 1: CGCGTGACTCACCCC
DNA 2: GGGGTGAGTCACGCG
In the case of B1, the dissociation constant Kd turned out to be 14.8 ± 1.67 µM in data set [2], 0.25 ± 0.01 µM in data set [3], 1.26 ± 0.21 µM in data set [4] and 6.14 ± 0.27 µM in data set [5]. The binding result in data set [6] and in data set [7] was “no binding” each time.

Usually stoichiometry N stands for a count of units in the complex or per binding partner. One may read the Kd as the equilibrium constant for the complex coming apart.
